{
  "source": "paper PMC2213684",
  "about": "“Altering coenzyme specificity of Pichia stipitis xylose reductase by the semi-rational approach CASTing” (Microbial Cell Factories, 2007)",
  "proteins": {"B1": {"name": "PsXR (wild-type NT-XR), Pichia stipitis xylose reductase (Scheffersomyces stipitis CBS 6054) (protein)", "chain": "MPSIKLNSGYDMPAVGFGCWKVDVDTCSEQIYRAIKTGYRLFDGAEDYANEKLVGAGVKKAIDEGIVKREDLFLTSKLWNNYHHPDNVEKALNRTLSDLQVDYVDLFLIHFPVTFKFVPLEEKYPPGFYCGKGDNFDYEDVPILETWKALEKLVKAGKIRSIGVSNFPGALLLDLLRGATIKPSVLQVEHHPYLQQPRLIEFAQSRGIAVTAYSSFGPQSFVELNQGRALNTSPLFENETIKAIAAKHGKSPAQVLLRWSSQRGIAIIPKSNTVPRLLENKDVNSFDLDEQDFADIAKLDINLRFNDPWDWDKIPIFV"}, "B2": {"name": "PsXR (wild-type NT-XR), Pichia stipitis xylose reductase (Scheffersomyces stipitis CBS 6054; K270S/N272P) (protein)", "chain": "B1 chain with K270S, N272P"}, "B3": {"name": "PsXR (wild-type NT-XR), Pichia stipitis xylose reductase (Scheffersomyces stipitis CBS 6054; K270R/N272D) (protein)", "chain": "B1 chain with K270R, N272D"}, "B4": {"name": "PsXR (wild-type NT-XR), Pichia stipitis xylose reductase (Scheffersomyces stipitis CBS 6054; K270S/N272P/R276F/S271G) (protein)", "chain": "B1 chain with K270S, S271G, N272P, R276F"}},
  "key": {"purified protein [1]": {"substrate": "NC(=O)C1=CN([C@@H]2O[C@H](COP(=O)(O)OP(=O)(O)OC[C@H]3O[C@@H](n4cnc5c(N)ncnc54)[C@H](OP(=O)(O)O)[C@@H]3O)[C@@H](O)[C@H]2O)C=CC1", "assay": "purified protein", "format": "biochemical, Scheffersomyces stipitis", "details": "50 mM potassium phosphate pH 6.0"}, "purified protein [2]": {"substrate": "NC(=O)C1=CN([C@@H]2O[C@H](COP(=O)(O)OP(=O)(O)OC[C@H]3O[C@@H](n4cnc5c(N)ncnc54)[C@H](O)[C@@H]3O)[C@@H](O)[C@H]2O)C=CC1", "assay": "purified protein", "format": "biochemical, Scheffersomyces stipitis", "details": "50 mM potassium phosphate pH 6.0"}, "[3]": {"details": "mutant NT-K270R/N272D, 0.5 M xylose"}},
  "note": "Changes are numbered by the printed parent chain. Numbers in names are those of the source.",
  "data": [
    {"protein": "B1", "values": [
      {"measurement": "Km", "setting": "purified protein [1]; 0.5 M xylose", "result": "0.0062 ± 0.0014", "unit": "mM"},
      {"measurement": "kcat", "setting": "purified protein [1]; 0.5 M xylose", "result": "27.5 ± 3.28", "unit": "s⁻¹"},
      {"measurement": "kcat/Km", "setting": "purified protein [1]; 0.5 M xylose", "result": "4.65e+06 ± 938000", "unit": "M⁻¹ s⁻¹"},
      {"measurement": "Km", "setting": "purified protein [2]; 0.5 M xylose", "result": "0.0106 ± 0.0006", "unit": "mM"},
      {"measurement": "kcat", "setting": "purified protein [2]; 0.5 M xylose", "result": "15.4 ± 0.583", "unit": "s⁻¹"},
      {"measurement": "kcat/Km", "setting": "purified protein [2]; 0.5 M xylose", "result": "1.46e+06 ± 112000", "unit": "M⁻¹ s⁻¹"}
    ]},
    {"protein": "B2", "values": [
      {"measurement": "Km", "setting": "purified protein [1]; mutant 1-2F7, 0.5 M xylose", "result": "0.849 ± 0.045", "unit": "mM"},
      {"measurement": "kcat", "setting": "purified protein [1]; mutant 1-2F7, 0.5 M xylose", "result": "35.2 ± 3.93", "unit": "s⁻¹"},
      {"measurement": "kcat/Km", "setting": "purified protein [1]; mutant 1-2F7, 0.5 M xylose", "result": "41700 ± 5000", "unit": "M⁻¹ s⁻¹"},
      {"measurement": "Km", "setting": "purified protein [2]; mutant 1-2F7, 0.5 M xylose", "result": "0.512 ± 0.022", "unit": "mM"},
      {"measurement": "kcat", "setting": "purified protein [2]; mutant 1-2F7, 0.5 M xylose", "result": "18.5 ± 1.3", "unit": "s⁻¹"},
      {"measurement": "kcat/Km", "setting": "purified protein [2]; mutant 1-2F7, 0.5 M xylose", "result": "36300 ± 2520", "unit": "M⁻¹ s⁻¹"}
    ]},
    {"protein": "B3", "values": [
      {"measurement": "Km", "setting": "purified protein [1]; [3]", "result": "0.142 ± 0.031", "unit": "mM"},
      {"measurement": "kcat", "setting": "purified protein [1]; [3]", "result": "15.9 ± 3.38", "unit": "s⁻¹"},
      {"measurement": "kcat/Km", "setting": "purified protein [1]; [3]", "result": "107000 ± 24800", "unit": "M⁻¹ s⁻¹"},
      {"measurement": "Km", "setting": "purified protein [2]; [3]", "result": "0.058 ± 0.009", "unit": "mM"},
      {"measurement": "kcat", "setting": "purified protein [2]; [3]", "result": "17.9 ± 2.07", "unit": "s⁻¹"},
      {"measurement": "kcat/Km", "setting": "purified protein [2]; [3]", "result": "313000 ± 40000", "unit": "M⁻¹ s⁻¹"}
    ]},
    {"protein": "B4", "values": [
      {"measurement": "Km", "setting": "purified protein [1]; mutant 2-2C12, 0.5 M xylose", "result": "0.427 ± 0.017", "unit": "mM"},
      {"measurement": "kcat", "setting": "purified protein [1]; mutant 2-2C12, 0.5 M xylose", "result": "2.63 ± 0.15", "unit": "s⁻¹"},
      {"measurement": "kcat/Km", "setting": "purified protein [1]; mutant 2-2C12, 0.5 M xylose", "result": "6170 ± 317", "unit": "M⁻¹ s⁻¹"},
      {"measurement": "Km", "setting": "purified protein [2]; mutant 2-2C12, 0.5 M xylose", "result": "0.147 ± 0.012", "unit": "mM"},
      {"measurement": "kcat", "setting": "purified protein [2]; mutant 2-2C12, 0.5 M xylose", "result": "12 ± 0.95", "unit": "s⁻¹"},
      {"measurement": "kcat/Km", "setting": "purified protein [2]; mutant 2-2C12, 0.5 M xylose", "result": "81700 ± 5250", "unit": "M⁻¹ s⁻¹"}
    ]}
  ]
}
